Measurements from patent US20230009539A1 (CLEVELAND CLINIC FOUNDATION, published 2023).

Experiments:
[1] = biological target: T1, TBK1 (endogenous, HeLa cells) (human (HeLa cells), UniProt Q9UHD2 1-729); assay: anti-Act1 immunoprecipitation from untreated and IL-17-treated HeLa cells (FIG. 4D)
T1 sequence (looked up): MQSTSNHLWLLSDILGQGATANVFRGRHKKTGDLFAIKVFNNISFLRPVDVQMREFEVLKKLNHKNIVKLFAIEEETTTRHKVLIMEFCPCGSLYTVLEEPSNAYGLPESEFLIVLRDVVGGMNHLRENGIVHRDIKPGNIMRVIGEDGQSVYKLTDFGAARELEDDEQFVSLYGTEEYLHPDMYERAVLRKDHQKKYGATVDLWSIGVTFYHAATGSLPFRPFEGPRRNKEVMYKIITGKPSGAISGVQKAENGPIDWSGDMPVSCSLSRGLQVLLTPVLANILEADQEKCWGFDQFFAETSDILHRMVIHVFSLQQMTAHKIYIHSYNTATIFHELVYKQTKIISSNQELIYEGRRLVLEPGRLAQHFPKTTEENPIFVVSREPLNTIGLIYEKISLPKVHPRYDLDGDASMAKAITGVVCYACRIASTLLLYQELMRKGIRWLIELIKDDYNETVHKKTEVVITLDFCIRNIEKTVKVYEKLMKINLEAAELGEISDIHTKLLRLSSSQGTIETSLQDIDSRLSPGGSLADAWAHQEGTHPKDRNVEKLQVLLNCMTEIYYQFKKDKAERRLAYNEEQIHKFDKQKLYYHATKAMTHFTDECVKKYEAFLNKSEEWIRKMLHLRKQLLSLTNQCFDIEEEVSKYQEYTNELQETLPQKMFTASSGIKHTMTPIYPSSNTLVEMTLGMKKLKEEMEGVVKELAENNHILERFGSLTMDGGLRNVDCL
Procedure: (§1) Immunoblot, immunoprecipitation and nuclear fractionation: Cell were harvested and lysed on ice in a lysis buffer containing 0.5% Triton X-100, 20 mM Hepes pH 7.4, 150 mM NaCl, 12.5 mM-glycerophosphate, 1.5 mM MgCl2, 10 mM NaF, 2 mM dithiothreitol, 1 mM sodium orthovanadate, 2 mM EGTA, […], and 1 mM phenylmethylsulfonyl fluoride for 20 minutes, followed by centrifuging at 12,000 rpm for 15 minutes to extract clear lysates. For immunoprecipitation, cell lysates were incubated with 1 μg of antibody and A-sepharose beads at 4 degree overnight. After incubation, the beads were washed four times with lysis buffer and the precipitates were eluted with 2× sample buffer. Elutes and whole cell extracts were resolved on SDS-PAGE followed by immunobloting with antibodies. Nuclear fractionation was performed using NUCLEI EZ PREP kit purchased from Sigma in accordance with the manufacturer's instruction. Nuclear pellets were suspended in 30p1 of nuclear extraction buffer (20 mM HEPES, 400 mM NaCl, 1 mM EDTA, 1 mM EGTA in water, pH 7.9) containing freshly prepared 1 mM DTT and protease inhibitor cocktail. After 1.5 h incubation on ice bath with intermittent vortexing, extracts were centrifuged and supernatant was collected for immunoprecipitation.

[2] = biological target: T2, IKKi (endogenous, HeLa cells) (human (HeLa cells), UniProt Q14164 1-716); assay: as above
T2 sequence (looked up): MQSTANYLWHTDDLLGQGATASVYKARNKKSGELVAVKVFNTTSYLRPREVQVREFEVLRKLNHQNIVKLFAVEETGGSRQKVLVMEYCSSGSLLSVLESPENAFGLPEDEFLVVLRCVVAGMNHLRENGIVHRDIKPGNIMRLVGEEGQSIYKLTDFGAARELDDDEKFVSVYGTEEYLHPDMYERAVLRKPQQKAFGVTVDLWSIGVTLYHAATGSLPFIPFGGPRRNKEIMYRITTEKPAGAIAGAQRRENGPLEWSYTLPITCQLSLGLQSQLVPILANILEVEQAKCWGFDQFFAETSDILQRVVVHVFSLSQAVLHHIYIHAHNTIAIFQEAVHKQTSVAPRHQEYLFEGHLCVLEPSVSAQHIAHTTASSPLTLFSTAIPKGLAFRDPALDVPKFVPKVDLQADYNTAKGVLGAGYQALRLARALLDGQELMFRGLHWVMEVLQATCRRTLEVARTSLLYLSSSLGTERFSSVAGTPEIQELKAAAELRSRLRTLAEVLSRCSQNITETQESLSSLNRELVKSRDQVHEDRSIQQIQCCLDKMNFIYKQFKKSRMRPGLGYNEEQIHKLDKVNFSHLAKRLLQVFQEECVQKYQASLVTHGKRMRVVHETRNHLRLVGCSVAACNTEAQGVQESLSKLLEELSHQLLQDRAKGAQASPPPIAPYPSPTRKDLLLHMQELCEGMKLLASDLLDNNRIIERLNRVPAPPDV
Procedure: as §1

[3] = biological target: T3, Dcp1 (endogenous, HeLa cells) (human (HeLa cells), UniProt Q9NPI6 1-582); assay: in situ proximity ligation assay with anti-Act1 and anti-Dcp1, endogenous proteins in HeLa cells, untreated or IL-17
T3 construct: its constructs and phospho-antibody are Dcp1a; also called Dcp1 decapping enzyme; Dcp1a
T3 sequence (looked up): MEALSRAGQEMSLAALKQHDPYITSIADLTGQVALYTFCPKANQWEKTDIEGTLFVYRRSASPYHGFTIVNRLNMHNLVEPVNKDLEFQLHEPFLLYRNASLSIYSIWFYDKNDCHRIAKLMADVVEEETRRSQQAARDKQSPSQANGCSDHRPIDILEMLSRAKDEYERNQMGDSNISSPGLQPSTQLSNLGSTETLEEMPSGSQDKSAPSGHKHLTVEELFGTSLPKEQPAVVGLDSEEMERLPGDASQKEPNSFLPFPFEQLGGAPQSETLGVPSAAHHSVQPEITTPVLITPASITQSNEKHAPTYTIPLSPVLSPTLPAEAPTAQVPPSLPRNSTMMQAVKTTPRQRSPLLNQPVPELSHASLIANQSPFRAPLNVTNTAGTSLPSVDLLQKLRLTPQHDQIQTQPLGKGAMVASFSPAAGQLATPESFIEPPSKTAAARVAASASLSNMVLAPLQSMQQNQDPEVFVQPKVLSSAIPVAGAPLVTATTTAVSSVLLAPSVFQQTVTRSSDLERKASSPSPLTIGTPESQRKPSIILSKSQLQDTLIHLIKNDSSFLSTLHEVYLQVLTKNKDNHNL

FLAG-hIRAK1 = biological target: T4, FLAG-hIRAK1 (human, UniProt P51617 1-712); assay: in situ proximity ligation assay (anti-Flag and anti-HA) in HeLa cells co-transfected with IRAK1-FLAG and Act1-HA (negative control)
T4 construct: Negative control of the PLA; also called IRAK1-Flag; not shown: FLAG tag

FLAG-hDcp1a = biological target: T5, FLAG-hDcp1a (human, UniProt Q9NPI6 1-582); assay: in situ proximity ligation assay (anti-Flag and anti-HA) in HeLa cells co-transfected with Dcp1-FLAG and Act1-HA
T5 construct: also called Dcp1-Flag; FLAG-tagged Dcp1; not shown: FLAG tag
T5 sequence (looked up): T3 sequence (looked up)

FLAG-hDcp2 = biological target: T6, FLAG-hDcp2 (human, UniProt Q8IU60 1-420); assay: co-immunoprecipitation with anti-FLAG from transfected HeLa cells, HA blot
T6 construct: also called FLAG-tagged Dcp2; not shown: FLAG tag

T4 sequence (P51617 whole entry): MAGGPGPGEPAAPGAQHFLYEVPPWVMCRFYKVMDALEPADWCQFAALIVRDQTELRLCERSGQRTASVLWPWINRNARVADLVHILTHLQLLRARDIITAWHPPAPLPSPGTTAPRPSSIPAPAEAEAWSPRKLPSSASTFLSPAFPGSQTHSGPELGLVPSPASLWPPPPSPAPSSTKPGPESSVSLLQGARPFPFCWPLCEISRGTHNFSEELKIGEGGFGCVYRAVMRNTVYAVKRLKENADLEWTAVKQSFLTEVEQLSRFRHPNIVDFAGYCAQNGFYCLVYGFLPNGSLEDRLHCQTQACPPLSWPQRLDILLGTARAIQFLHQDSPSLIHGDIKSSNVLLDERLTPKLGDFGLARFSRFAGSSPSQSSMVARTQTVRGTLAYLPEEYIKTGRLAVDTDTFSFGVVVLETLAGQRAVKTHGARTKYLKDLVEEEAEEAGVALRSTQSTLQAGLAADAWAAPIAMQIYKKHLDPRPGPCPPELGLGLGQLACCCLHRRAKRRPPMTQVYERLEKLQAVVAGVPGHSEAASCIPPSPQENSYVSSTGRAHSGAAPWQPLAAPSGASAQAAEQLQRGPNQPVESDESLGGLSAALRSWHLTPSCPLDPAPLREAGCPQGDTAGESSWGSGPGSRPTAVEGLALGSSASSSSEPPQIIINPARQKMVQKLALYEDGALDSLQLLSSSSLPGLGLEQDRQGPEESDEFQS

B1: Act1 (endogenous, HeLa cells) (other, human (HeLa cells), UniProt O43734 1-574, looked up)
chain: MPPQLQETRMNRSIPVEVDESEPYPSQLLKPIPEYSPEEESEPPAPNIRNMAPNSLSAPTMLHNSSGDFSQAHSTLKLANHQRPVSRQVTCLRTQVLEDSEDSFCRRHPGLGKAFPSGCSAVSEPASESVVGALPAEHQFSFMEKRNQWLVSQLSAASPDTGHDSDKSDQSLPNASADSLGGSQEMVQRPQPHRNRAGLDLPTIDTGYDSQPQDVLGIRQLERPLPLTSVCYPQDLPRPLRSREFPQFEPQRYPACAQMLPPNLSPHAPWNYHYHCPGSPDHQVPYGHDYPRAAYQQVIQPALPGQPLPGASVRGLHPVQKVILNYPSPWDHEERPAQRDCSFPGLPRHQDQPHHQPPNRAGAPGESLECPAELRPQVPQPPSPAAVPRPPSNPPARGTLKTSNLPEELRKVFITYSMDTAMEVVKFVNFLLVNGFQTAIDIFEDRIRGIDIIKWMERYLRDKTVMIIVAISPKYKQDVEGAESQLDEDEHGLHTKYIHRMMQIEFIKQGSMNFRFIPVLFPNAKKEHVPTWLQNTHVYSWPKNKKNILLRLLREEEYVAPPRGPLPTLQVVPL
notes: Endogenous protein in cells or cell lysate; also called CIKS; endogenous Act1
binding result [1]: binds
binding result [2]: binds
binding result [3]: binds

B2: HA-hAct1 (other, human, UniProt O43734 1-574, looked up)
chain: B1 chain
notes: Printed as HA-hAct1 in the constructs and Act1-HA in the legends; also called Act1-HA; not shown: HA tag
binding result (FLAG-hIRAK1): no binding
binding result (FLAG-hDcp1a): binds

B3: HA-TBK1 (enzyme, not shown: small tags and cut ends)
chain: T1 sequence (looked up)
notes: also called HA-tagged TBK1
binding result (FLAG-hDcp2): no binding
